# System: Nalm-6 cells
# Assay: 48 hour cytotoxicity assay, T cells co-cultured with Nalm-6 cells (NucRed), Incucyte (Example 4, Table 14)
# Type: cell-based
# Conditions: for Average Total Nalm6-NucRed Area after 48 hour at E:T ratio of 3:1: E:T ratio 3:1, 48 hour; for Average Total Nalm6-NucRed Area after 48 hour at E:T ratio of 10:1: E:T ratio 10:1, 48 hour
# Text: The following constructs were transduced into T cells: OT-001356 (nucleic acid sequence SEQ ID NO: 6081 encodes two amino acid sequences, first is SEQ ID NO: 6082 (nucleic acid sequence SEQ ID NO: 6083) second is SEQ ID NO: 6084 (nucleic acid sequence SEQ ID NO: 6085)), OT-001356 (amino acid sequence provided as SEQ ID NO: 6092 and nucleic acid is SEQ ID NO: 6093) OT-001407 (amino acid sequence provided as SEQ ID NO: 6086 and nucleic acid is SEQ ID NO: 6087), OT-001895, OT-002011, OT-002111, OT-0020%, OT-02171. The cells were expanded for 10 days and utilized for cytotoxicity assays. Percentage of CAR positive cells obtained with each of the constructs was as follows: OT-001356: 45.3%; OT-001407, OT-001895: 29.4%, OT-002011: 24.3%, OT-002111: 19.6%, OT-0020%: 6.08%, OT-002171: 13.3%. For cytotoxicity assays, T cells were thawed and co-cultured with Nalm-6 cells (stably expressing NucRed) at different T cells to Nalm-6 cell culture ratios. Target cell viability was determined by measuring cellular fluorescence over time using an Incucyte assay and the results are shown in Table 14.
Molecule,Average Total Nalm6-NucRed Area after 48 hour at E:T ratio of 3:1,Average Total Nalm6-NucRed Area after 48 hour at E:T ratio of 10:1
OT-002011: construct transduced into T cells for the study of the effect of mbIL12 on CAR activity (protein) IWELKKDVYVVELDWYPDAPGEMVVLTCDTPEEDGITWTLDQSSEVLGSGKTLTIQVKEFGDAGQYTCHKGGEVLSHSLLLLHKKEDGIWSTDILKDQKEPKNKTFLRCEAKNYSGRFTCWWLTTISTDLTFSVKSSRGSSDPQGVTCGAATLSAERVRGDNKEYEYSVECQEDSACPAAEESLPIEVMVDAVHKLKYENYTSSFFIRDIIKPDPPKNLQLKPLKNSRQVEVSWEYPDTWSTPHSYFSLTFCVQVQGKSKREKKDRVFTDKTSATVICRKNASISVRAQDRYYSSSWSEWASVPCSGGGGSGGGGSGGGGSRNLPVATPDPGMFPCLHHSQNLLRAVSNMLQKARQTLEFYPCTSEEIDHEDITKDKTSTVEACLPLELTKNESCLNSRETSFITNGSCLASRKTSFMMALCLSSIYEDLKMYQVEFKTMNAKLLMDPKRQIFLDQNMLAVIDELMQALNFNSETVPQKSSLEEPDFYKTKIKLCILLHAFRIRAVTIDRVMSYLNASGSGSGSGSGSGSGSGSGSGSGSGSGSGSGSLDFACDLLPSWAITLISVNGIFVICCLTYCFAPRCRERRGS,"59,465","44,301"
OT-002111: construct transduced into T cells for the study of the effect of mbIL12 on CAR activity (protein) IWELKKDVYVVELDWYPDAPGEMVVLTCDTPEEDGITWTLDQSSEVLGSGKTLTIQVKEFGDAGQYTCHKGGEVLSHSLLLLHKKEDGIWSTDILKDQKEPKNKTFLRCEAKNYSGRFTCWWLTTISTDLTFSVKSSRGSSDPQGVTCGAATLSAERVRGDNKEYEYSVECQEDSACPAAEESLPIEVMVDAVHKLKYENYTSSFFIRDIIKPDPPKNLQLKPLKNSRQVEVSWEYPDTWSTPHSYFSLTFCVQVQGKSKREKKDRVFTDKTSATVICRKNASISVRAQDRYYSSSWSEWASVPCSGGGGSGGGGSGGGGSRNLPVATPDPGMFPCLHHSQNLLRAVSNMLQKARQTLEFYPCTSEEIDHEDITKDKTSTVEACLPLELTKNESCLNSRETSFITNGSCLASRKTSFMMALCLSSIYEDLKMYQVEFKTMNAKLLMDPKRQIFLDQNMLAVIDELMQALNFNSETVPQKSSLEEPDFYKTKIKLCILLHAFRIRAVTIDRVMSYLNASGSGSGSGSADFPTPSISDFEIPTSNIRRIICSTSGGFPEPHLSWLENGEELNAINTTVSQDPETELYAVSSKLDFNMTTNHSFMCLIKYGHLRVNQTFNWNTTKQEHFPDNGS,"42,520","42,899"
